Substrate in the data set: OB(O)O
The experiment in a line: two-electrode voltage clamp, boric acid-elicited currents in Xenopus oocytes. It is filed as cell-based, Takifugu obscurus. The settings on record: total boric acid (B(OH)3 + B(OH)4-), Vh +60 mV, pH 7.5, 18 °C, Na+-independent electrogenic transport. (In general: Two-electrode voltage clamp is typically applied to oocytes expressing channels or transporters.)

B1: Slc4a11A (mfSlc4a11A) (Takifugu obscurus) (protein)
chain: MDMLSQEMELKDEKKEDYGEDSDAIHIYDTEAYISVSDPDRPGFGLLNTTRKYVKPMNFQEEVRAHRDLDNFLAQASILLDERATTLDEVLRRMLAHLLEEGRESCDPDEVMSSVFTDAGGKDFDVHLLSETIQGVTSTSTGIHYQQSWLCILTNLRSLQRRHVCIARLDRPQNWGVNCCEARYVIFILAPPRTKSTKTAIELGRTFATMFSDISFRQRLLETKTQEEFKQELLSYRQKLSTVQEKPVEEEEEDSDPRRGKALQCKDFLKAGKGVYRDLRRRLPLYPSDFTDGLTGKDRCLLKYTTTAIFLYIAILLPAIAFGSLNDESTRGEIDVQKTIVGQSIGGVIYALFAGSPLVIPLTTAPLAIFISVIRGICDDYDLDFDSFYACIGLWNSLFLILGGLFNVSLLMKLFKRSTEEVIALFISIAFVGDAVKGTVKIFQHFYRGPTLTTTNSTLVFQQLEGILNQTNNQTGNGLGEHGQADGHTLVFLPQSLVECTREMPILCLLLMLGTLWLGYTLYLIRRSPYLNDKIREVVSDCALPISVVICSFIGSYLFLNIKLPVFSVHDGPIFNYPPFDKLSGMSALSAVGLGFLLALLIFIDQNIVISLTHVPEHKLLKGTAFHWDLMLTGFINILMSCLGLPWMHAAFPHSSLHARQLAKVEQHVENGHLYTTIVSVKETRLTALAANILIGLSAFMLPIPLQWIPKPVLYGLFLYIAATSLDGNQMVDRMCLLLKEQTSYPPTHYVRRVPQRKVHFFTGVQMIQLIILCAFGMYPLPYMKMVFPLLMILLVPIRTSLLPKMIDAKYLDIMDAQHM
notes: full-length cDNA in pGEMHE, untagged, expressed in Xenopus laevis oocytes; 820 residues; C-terminal region antigen peptide PKMIDAKYLDIMDAQHM
For orientation: Km means the substrate concentration at which the rate is half of its maximum. With B1, the Km came out at 6.5 ± 0.6 mM.

Source of the values: paper PMC9803922, “Seawater fish use an electrogenic boric acid transporter, Slc4a11A, for boric acid excretion by the kidney” (The Journal of Biological Chemistry, 2022).
